B1: recombinant activin-A: Recombinant activin-A produced using mammalian expression system (Amgen Inc); stimulus in cell cultures (protein)
chain: GLECDGKVNICCKKQFFVSFKDIGWNDWIIAPSGYHANYCEGECPSHIAGTSGSSLSFHSTVINHYRMRGHSPFANLKSCCVPTKLRPMSMLYYDDGQNIIKKDIQNMIVEECGCS

Experiments:
[1] = test system: TOV-21G ovarian cancer xenografts; assay: TOV-21G ovarian cancer xenograft growth in nude mice; format: in vivo, mouse
Protocol: 5×10^6 TOV-21G ovarian cancer cells were implanted subcutaneously into individual female athymic nu/nu mice (Harlan). Treatment was initiated at day 12 after tumor implantation, when the average tumor volume reached approximately 150 mm^3. The mice received PBS, sActRIIB (30 mg/kg, SC, 1×/week) or activin-A antibody (30 mg/kg, SC, 2×/week). In a separate chemotherapy combination experiment, the mice were treated with PBS, sActRIIB (10 mg/kg, SC, 1×/week), 5-FU (50 mg/kg, IP, 3 cycles, 4 daily injections per cycle) or sActRIIB and 5-FU combination at the same doses above.
For all xenograft experiments, the tumor sizes were measured longitudinally by using an electronic caliper Immediately prior to the 1st dose, the tumor-bearing mice were randomized to ensure even distribution in tumor sizes across different groups. Tumor volumes (mm^3) were calculated as tumor length (mm)×tumor width (mm)×tumor height (mm) Tumor weights were determined by necropsy.
In another experiment, athymic nude mice received TOV-21G xenografts in the abdominal flank. After 14 days, subcutaneous hu-sActRIIB-Fc was administered weekly alone or in combination with 5-FU.

VEGF transcripts = assay: VEGF mRNA in cell cultures (real-time RT-PCR); format: cell-based, human, bovine; details: TOV-21G, BAEC, MRC-5, CCD-Lu, U937 cultures treated with recombinant activin-A, without or with sActRIIB; FIG. 16A
VEGF = VEGF release into culture medium (ELISA); format: cell-based, human; details: TOV21G, MRC-5, CCD-Lu and TPH-1 cells treated with activin-A, without or with sActRIIB; FIG. 17A
Protocol: (§1) The serum VEGF levels in inh-KO mice were measured by using immunoassay kit (R&D Systems), and the levels of human VEGF and Ang-1 in cell line culture medium were quantified using ELISA kits purchased from Invitrogen (VEGF) and R&D Systems (Ang-1), by following the manufacturers' recommended protocols.

Ang-1 mRNA = Ang-1 mRNA in cell cultures (real-time RT-PCR); format: cell-based, human, bovine; details: BAEC, MRC-5 and CCD-Lu cultures treated with recombinant activin-A, without or with sActRIIB; FIG. 16B
Ang-1 = Ang-1 release into culture medium (ELISA); format: cell-based, human; details: MRC-5 and CCD-Lu cells treated with activin-A, without or with sActRIIB; FIG. 17B
Protocol: as §1

activin-A (βA) mRNA = assay: Endogenous activin-A (βA) mRNA in cell cultures (real-time RT-PCR); format: cell-based, human, bovine; details: TOV21G, BAEC, MRC-5, CCD-Lu, U937 and THP-1 cultures treated with recombinant activin-A, without or with sActRIIB; FIG. 18

Molecule | tumor growth reduction ([1]; 52 days after tumor cell injection, versus vehicle-treated tumor-bearing group, p<0.0001, weekly SC hu-sActRIIB-Fc from day 14, alone or with 5-FU) [%] | rate of tumor growth of TOV-21G xenografts ([1]; chemotherapy combination experiment, sActRIIB 10 mg/kg SC 1x/week, 5-FU 50 mg/kg IP 3 cycles, alone or together, FIG. 13) | levels of VEGF transcripts (VEGF transcripts) | release of VEGF into the culture medium (VEGF) | levels of Ang-1 mRNA (Ang-1 mRNA) | release of Ang-1 into the culture medium (Ang-1) | endogenous βA mRNA expression (activin-A (βA) mRNA)
O=c1[nH]cc(F)c(=O)[nH]1 [5-FU, 5-Fluorouracil, reference compound] | 47 | decreased the rate of tumor growth significantly |  |  |  |  | 
B1 |  |  | marked increases | increased the release | marked increases | increased the release | markedly upregulated
